The values that follow come from patent publication US11352401.

One assay deals with T1, HLA-B*07 (human).
T1 construct: MHC monomer made peptide-receptive by UV cleavage of a UV-sensitive ligand; also called peptide-receptive MHC class I monomer
The experiment in a line: UV peptide-exchange ELISA; ++ = yield >20%. The text has this:
(§1) Candidate peptides for T cell based therapies according to the present invention were further tested for their MHC binding capacity (affinity). The individual peptide-MHC complexes were produced by UV-ligand exchange, where a UV-sensitive peptide is cleaved upon UV-irradiation, and exchanged with the peptide of interest as analyzed. Only peptide candidates that can effectively bind and stabilize the peptide-receptive MHC molecules prevent dissociation of the MHC complexes. To determine the yield of the exchange reaction, an ELISA was performed based on the detection of the light chain (β2m) of stabilized MHC complexes. The assay was performed as generally described in Rodenko et al. (Rodenko et al., 2006).
(§2) 96 well MAXISorp plates (NUNC) were coated over night with 2 ug/ml streptavidin in PBS at room temperature, washed 4× and blocked for 1 h at 37° C. in 2% BSA containing blocking buffer. […] Peptide-MHC monomers of the UV-exchange reaction were diluted 100-fold in blocking buffer. Samples were incubated for 1 h at 37° C., washed four times, incubated with 2 ug/ml HRP conjugated anti-β2m for 1h at 37° C., washed again and detected with TMB solution that is stopped with […]. Absorption was measured at 450 nm.

The target of assay [1] is T2, HLA-B*44 (human).
T2 construct: MHC monomer made peptide-receptive by UV cleavage of a UV-sensitive ligand; also called peptide-receptive MHC class I monomer
The experiment in a line: UV peptide-exchange ELISA; ++++ = yield >75%. Background: In an ELISA, binding on a coated surface is turned into a signal by an enzyme label.

Assay [2] deals with T2, HLA-B*44. In words: UV peptide-exchange ELISA; ++ = yield >20%.
Excerpt: as §1, §2

The target of another assay is T3, HLA-A*02 (human).
T3 construct: MHC monomer made peptide-receptive by UV cleavage of a UV-sensitive ligand; also called peptide-receptive MHC class I monomer
The experiment in a line: UV peptide-exchange ELISA; +++ = yield >50%.

In the next assay the target is T4, HLA-A*01 (human).
T4 construct: MHC monomer made peptide-receptive by UV cleavage of a UV-sensitive ligand; also called peptide-receptive MHC class I monomer
The experiment in a line: UV peptide-exchange ELISA; ++ = yield >20%.
Excerpt: as §1, §2

The target in assay [3] is T5, HLA-B*08 (human).
T5 construct: MHC monomer made peptide-receptive by UV cleavage of a UV-sensitive ligand; also called peptide-receptive MHC class I monomer
The experiment in a line: UV peptide-exchange ELISA; ++++ = yield >75%.

In the next assay the target is T6, HLA-A*24 (human).
T6 construct: MHC monomer made peptide-receptive by UV cleavage of a UV-sensitive ligand; also called peptide-receptive MHC class I monomer
In words: UV peptide-exchange ELISA; + = yield >10%.
Excerpt: as §1, §2

Assay [4] addresses T5, HLA-B*08. In words: UV peptide-exchange ELISA; +++ = yield >50%.

B1: YPENGVVQM (SEQ ID NO: 469) (peptide)
peptide: YPENGVVQM
For the molecule B1, the peptide exchange yield with HLA-B*07 lay in the range of 20 to 50%.

B2: SENLFFASF (SEQ ID NO: 361) (peptide)
peptide: SENLFFASF
B2: the peptide exchange yield with HLA-B*44 [1] was more than 75%.

B3: SEMNVNMKY (SEQ ID NO: 365) (peptide)
peptide: SEMNVNMKY
B3 registered a peptide exchange yield with HLA-B*44 [1] of more than 75%.

B4: GEFPVRVQV (SEQ ID NO: 368) (peptide)
peptide: GEFPVRVQV
Molecule B4 yielded a peptide exchange yield with HLA-B*44 [2] of 20 to 50%.

B5: GELALKKKI (SEQ ID NO: 371) (peptide)
peptide: GELALKKKI
B5 had a peptide exchange yield with HLA-B*44 [2] of 20 to 50%.

B6: FALPGLLHA (SEQ ID NO: 91) (peptide)
peptide: FALPGLLHA
For B6, the peptide exchange yield in the assay with HLA-A*02 was 50 to 75%.

B7: GSSDSSTLPKL (SEQ ID NO: 147) (peptide)
peptide: GSSDSSTLPKL
The molecule B7 came in with a peptide exchange yield in the assay with HLA-A*01 of 20 to 50%.

B8: TEFTTVLY (SEQ ID NO: 343) (peptide)
peptide: TEFTTVLY
In the assay with HLA-B*44 [2], B8 displayed a peptide exchange yield of 20 to 50%.

B9: DELFSIALY (SEQ ID NO: 359) (peptide)
peptide: DELFSIALY
B9 had a peptide exchange yield in the assay with HLA-B*44 [1] of more than 75%.

B10: EAAIRSVEL (SEQ ID NO: 318) (peptide)
peptide: EAAIRSVEL
Turning to B10, the peptide exchange yield with HLA-B*08 [3] is more than 75%.

B11: QEQDVDLVQKY (SEQ ID NO: 325) (peptide)
peptide: QEQDVDLVQKY
The molecule B11 gave a peptide exchange yield with HLA-B*44 [2] of 20 to 50%.

B12: SEPALLHSW (SEQ ID NO: 339) (peptide)
peptide: SEPALLHSW
In the assay with HLA-B*44 [1], B12 displayed a peptide exchange yield of more than 75%.

B13: AEEEIMKKI (SEQ ID NO: 476) (peptide)
peptide: AEEEIMKKI
B13: the peptide exchange yield in the assay with HLA-B*44 [2] fell in the range of 20 to 50%.

B14: STIRGELFFF (SEQ ID NO: 12) (peptide)
peptide: STIRGELFFF
In the case of B14, the peptide exchange yield with HLA-A*24 lay within 10 to 20%.

B15: MPLLWLRGF (SEQ ID NO: 273) (peptide)
peptide: MPLLWLRGF
Turning to B15, the peptide exchange yield with HLA-B*07 is 20 to 50%.

B16: VIKEKALTL (SEQ ID NO: 316) (peptide)
peptide: VIKEKALTL
Turning to B16, the peptide exchange yield with HLA-B*08 [4] lay in the range of 50 to 75%.

B17: KEADIHFLI (SEQ ID NO: 358) (peptide)
peptide: KEADIHFLI
In the assay with HLA-B*44 [1], B17 yielded a peptide exchange yield of more than 75%.

B18: HPELVNHIVF (SEQ ID NO: 267) (peptide)
peptide: HPELVNHIVF
B18 registered a peptide exchange yield with HLA-B*07 of 20 to 50%.

B19: IEFIHPQAF (SEQ ID NO: 345) (peptide)
peptide: IEFIHPQAF
Regarding B19, the peptide exchange yield with HLA-B*44 [1] was more than 75%.

B20: KELEATKQY (SEQ ID NO: 335) (peptide)
peptide: KELEATKQY
The molecule B20 gave a peptide exchange yield with HLA-B*44 [2] of 20 to 50%.

B21: MEVDPIGHVYIF (SEQ ID NO: 320) (peptide)
peptide: MEVDPIGHVYIF
Regarding B21, the peptide exchange yield in the assay with HLA-B*44 [1] was more than 75%.

B22: FEYDFLLQRI (SEQ ID NO: 328) (peptide)
peptide: FEYDFLLQRI
notes: also called FEYDFLLORI
Consider B22, for which the peptide exchange yield with HLA-B*44 [1] is more than 75%.

B23: FPQKFIDLL (SEQ ID NO: 288) (peptide)
peptide: FPQKFIDLL
The molecule B23 yielded a peptide exchange yield with HLA-B*07 of 20 to 50%.

B24: AEDEPAAAHL (SEQ ID NO: 334) (peptide)
peptide: AEDEPAAAHL
B24 came in with a peptide exchange yield with HLA-B*44 [2] of 20 to 50%.

B25: TENRYCVQL (SEQ ID NO: 337) (peptide)
peptide: TENRYCVQL
The molecule B25 displayed a peptide exchange yield in the assay with HLA-B*44 [1] of more than 75%.

B26: IQMDEPMAF (SEQ ID NO: 43) (peptide)
peptide: IQMDEPMAF
In the case of B26, the peptide exchange yield in the assay with HLA-A*24 lay within 10 to 20%.

B27: MEVPVIKI (SEQ ID NO: 332) (peptide)
peptide: MEVPVIKI
Molecule B27 registered a peptide exchange yield with HLA-B*44 [2] of 20 to 50%.

B28: ATDLVVLDRY (SEQ ID NO: 136) (peptide)
peptide: ATDLVVLDRY
In turn, B28 displayed a peptide exchange yield with HLA-A*01 of 20 to 50%.

B29: SEIGKAVGF (SEQ ID NO: 489) (peptide)
peptide: SEIGKAVGF
For the molecule B29, the peptide exchange yield in the assay with HLA-B*44 [1] is more than 75%.

B30: GLNTGSALSY (SEQ ID NO: 146) (peptide)
peptide: GLNTGSALSY
On to B30, for which the peptide exchange yield with HLA-A*01 lay in the range of 20 to 50%.

B31: FIISDWRFVL (SEQ ID NO: 101) (peptide)
peptide: FIISDWRFVL
Molecule B31 showed a peptide exchange yield with HLA-A*02 of 50 to 75%.

B32: SSDSSTLPKL (SEQ ID NO: 178) (peptide)
peptide: SSDSSTLPKL
In the assay with HLA-A*01, B32 displayed a peptide exchange yield of 20 to 50%.

B33: VASPKHCVL (SEQ ID NO: 300) (peptide)
peptide: VASPKHCVL
B33 gave a peptide exchange yield in the assay with HLA-B*08 [4] of 50 to 75%.

B34: NEVLTYIKF (SEQ ID NO: 352) (peptide)
peptide: NEVLTYIKF
On to B34, for which the peptide exchange yield in the assay with HLA-B*44 [1] is more than 75%.

B35: DAIQRKYSC (SEQ ID NO: 309) (peptide)
peptide: DAIQRKYSC
In the assay with HLA-B*08 [4], B35 came in with a peptide exchange yield of 50 to 75%.

B36: NLRDLLSEV (SEQ ID NO: 92) (peptide)
peptide: NLRDLLSEV
In the assay with HLA-A*02, B36 gave a peptide exchange yield of 50 to 75%.

B37: AYTLLGHEFV (SEQ ID NO: 77) (peptide)
peptide: AYTLLGHEFV
Turning to B37, the peptide exchange yield in the assay with HLA-A*24 lay in the range of 10 to 20%.

B38: HLLQKQTSI (SEQ ID NO: 302) (peptide)
peptide: HLLQKQTSI
In turn, B38 came in with a peptide exchange yield in the assay with HLA-B*08 [4] of 50 to 75%.

B39: SDMVRFHLF (SEQ ID NO: 355) (peptide)
peptide: SDMVRFHLF
In turn, B39 yielded a peptide exchange yield with HLA-B*44 [2] of 20 to 50%.

B40: LIFMLANVF (SEQ ID NO: 39) (peptide)
peptide: LIFMLANVF
For the molecule B40, the peptide exchange yield in the assay with HLA-A*24 was 10 to 20%.

B41: AEMLERVIKNY (SEQ ID NO: 319) (peptide)
peptide: AEMLERVIKNY
In turn, B41 returned a peptide exchange yield in the assay with HLA-B*44 [1] of more than 75%.

B42: AENLFRAF (SEQ ID NO: 366) (peptide)
peptide: AENLFRAF
Turning to B42, the peptide exchange yield with HLA-B*44 [2] is 20 to 50%.

B43: GEIIMQNNW (SEQ ID NO: 353) (peptide)
peptide: GEIIMQNNW
B43 returned a peptide exchange yield with HLA-B*44 [1] of more than 75%.

B44: FNKRKPLSL (SEQ ID NO: 298) (peptide)
peptide: FNKRKPLSL
The molecule B44 gave a peptide exchange yield with HLA-B*08 [4] of 50 to 75%.

B45: GEVSGLTKDF (SEQ ID NO: 480) (peptide)
peptide: GEVSGLTKDF
Consider B45, for which the peptide exchange yield in the assay with HLA-B*44 [2] was 20 to 50%.

B46: KEVDPAGHSY (SEQ ID NO: 322) (peptide)
peptide: KEVDPAGHSY
Turning to B46, the peptide exchange yield with HLA-B*44 [2] is 20 to 50%.

B47: ILKEDPFLF (SEQ ID NO: 19) (peptide)
peptide: ILKEDPFLF
Take B47: the peptide exchange yield with HLA-A*24 lay in the range of 10 to 20%.

B48: ASSSGPMRWW (SEQ ID NO: 336) (peptide)
peptide: ASSSGPMRWW
In the assay with HLA-B*44 [2], B48 displayed a peptide exchange yield of 20 to 50%.

B49: VEAPGPVHVYW (SEQ ID NO: 346) (peptide)
peptide: VEAPGPVHVYW
In the case of B49, in the assay with HLA-B*44 [1], the peptide exchange yield is more than 75%.

B50: FPVTSIFHTF (SEQ ID NO: 284) (peptide)
peptide: FPVTSIFHTF
The molecule B50 registered a peptide exchange yield in the assay with HLA-B*07 of 20 to 50%.

B51: HPMIDINGIIVF (SEQ ID NO: 278) (peptide)
peptide: HPMIDINGIIVF
In the assay with HLA-B*07, B51 gave a peptide exchange yield of 20 to 50%.

B52: AEVGFVRFF (SEQ ID NO: 484) (peptide)
peptide: AEVGFVRFF
B52 yielded a peptide exchange yield with HLA-B*44 [1] of more than 75%.

B53: YLPQHTIETY (SEQ ID NO: 199) (peptide)
peptide: YLPQHTIETY
Molecule B53 registered a peptide exchange yield with HLA-A*01 of 20 to 50%.

B54: TEGIIMKDF (SEQ ID NO: 372) (peptide)
peptide: TEGIIMKDF
As for B54, the peptide exchange yield in the assay with HLA-B*44 [2] was 20 to 50%.

B55: TEFPIIKMY (SEQ ID NO: 488) (peptide)
peptide: TEFPIIKMY
Molecule B55 displayed a peptide exchange yield in the assay with HLA-B*44 [2] of 20 to 50%.
